Assay results published in the supplement of paper PMC9170038.

Test system: MS2 coat protein
Assay: apparent KD of MS2 coat protein; designed switch direction (-1 OFF switch, 1 ON switch): -1; higher = weaker reporter binding
In short: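 Designed RNA switches were transcribed on Illumina chips by stalled E. coli RNA polymerase and titrated with SNAP-549-labelled MS2 coat protein from 0.7 or 1.5 nM, doubling to 3 µM. Step length ran from 0.8–1.5 h at the lowest concentration to 10–20 min at the highest. The apparent KD is the median over clusters for each design, from curve-fitted normalised cluster fluorescence.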

[1] = input ligand: microRNA oligo, concentration not stated
[2] = Eterna round: R95, input ligand: FMN 200 uM
[3] = Eterna round: R95, input ligand: microRNA oligo, concentration not stated
[4] = Eterna round: R95, input ligand: none

Sequence	apparent KD of MS2 coat protein (input ligand: FMN 200 uM) [nM]	apparent KD of MS2 coat protein [1] [nM]	apparent KD of MS2 coat protein (input ligand: none) [nM]	apparent KD of MS2 coat protein [2] [nM]	apparent KD of MS2 coat protein [3] [nM]	apparent KD of MS2 coat protein [4] [nM]
CACCUGAAUACAGGAUAUCUUACAUGAGGAUCACCCAUGUAAUAAAUGAGAAUUUCGAAUGUAAUAGAGAAGGGUAGAUAAGGC [Ostracism 87 - Jieux - Exclusion NG 2] (Eterna round: R96, puzzle: Exclusion NG 2)	39.2	26.5	33.1	–	–	–
CACGAAAUGUGAGGAUAUGUGCGACAAAGUUGCACAGAAGGCACAUGAGGAUCACCCAUGUAAGCUAGGUCGAAAGACCUAGCG [Omei Exc(NG)1 Av2] (Eterna round: R96, puzzle: Exclusion NG 1)	269	56.3	89.8	–	–	–
CACUUACAUGAGGAUCACCCAUGUGAGGAUAUCGUGACCUGACGAGAAGUCAAUGUCACGAGAAGGCACGUGGG [Exclusion 1 (Mod 3 solution 97 by Eternabot)] (Eterna round: R97, puzzle: Exclusion 1)	11.9	–	35.9	–	–	–
CAGCCCUGAGGAUAUCCAUCCUUGUACAUGAGGAUCACCCAUGUCUCCCUCUGGGCUUUCGGAGAAGGCAGGUAUC [Megrez-6.2] (Eterna round: R97, puzzle: Exclusion 5)	43.2	–	44.5	–	–	–
CAGCUGAAAGUCAGGAUAUCUAGAGCCUCGGCUCUAGAGAAGGGACAUGAGGAUCACCCAUGUGGUCACAGCUG [BmEx4/5-A2] (Eterna round: R97, puzzle: Brourd's mod of Exclusion 4)	93.5	–	619	–	–	–
CAGCUGAAUGUGAGGAUAUCUAGAGCCUCGGCUCUAGAGAAGGCACAUGAGGAUCACCCAUGUCUCAACAGCUG [BmEx4/2-A2] (Eterna round: R97, puzzle: Brourd's mod of Exclusion 4)	249	–	35.9	–	–	–
CAGGUGUUAGGAUAUCGGAGAUCGAGGCCGACGGGAAAAGCCGAGAAGGAACAUGAGGAUCACCCAUGUAGGUG [JR_Exclu4_Sub035] (puzzle: Exclusion 4)	–	–	–	347	235	223
CAGUACUGAGGAUAUACAUGAGGAUCACCCAUGUCCUUCAGCUAGGAAACUAGCGAAAGUAGAAGGCAGUACUG [Eli x3 4.001] (Eterna round: R97, puzzle: Exclusion 3)	366	–	13.4	–	–	–
CAGUACUGAGGAUAUACAUGAGGAUCACCCAUGUGCCUAAGGUAGGAUACUACCAUUAGUAGAAGGCAGUACUG [Fiskers Ex 3 828 mod 16] (puzzle: Exclusion 3)	–	–	–	–	13.6	–
CAGUACUGAGGAUAUACAUGAGGAUCACCCAUGUGGUUUAGUGCACGCGUACGUGUACGUAGAAGGCAGUACUG [JL 3.27 m8] (Eterna round: R97, puzzle: Exclusion 3)	78.3	–	18.9	–	–	–
CAGUACUGAGGAUAUACAUGAGGAUCACCCAUGUGUGAGAUACUAGUGAGGUCGAUUAGUAGAAGGCAGUACUG [Mat X3R4 m25] (Eterna round: R97, puzzle: Exclusion 3)	957	–	26.3	–	–	–
CAGUACUGAGGAUAUACAUGAGGAUCACCCAUGUGUGUGAAAUUUAUGUGGUCGUAAUGUAGAAGGCAGUACUG [JR_Ex3_Sub028] (Eterna round: R97, puzzle: Exclusion 3)	30.5	–	62.9	–	–	–
CAGUACUGAGGAUAUACAUGAGGAUCACCCAUGUGUUCCAGCUAGGAAACUAGCAAAAGUAGAAGGCUGUACUG [salish99_ex3_r3_088] (puzzle: Exclusion 3)	–	–	–	–	17.9	–
CAGUACUGAGGAUAUACAUGAGGAUCACCCAUGUGUUCCAGCUAGGAAACUAGCAUAUGUAGAAGGCAGUACUG [Eli x3 4.06] (Eterna round: R97, puzzle: Exclusion 3)	578	–	298	–	–	–
CAGUACUGCAGGCUUUGGGACAUGAGGAUCACCCAUGUUCGUCUUAUUGAUCUAGGUACGCUGACGUACCUAGAUCU [JL-sv1-2.14 Brourd mod] (puzzle: Sensor v3, turn-off variant 1)	–	–	–	18.8	20	17.6
CAGUGCGUAGGAUAUACGAGGGCCCUUUAUUGUUGAUAAUGACAUGAGGAUCACCCAUGUAGAAGGGCGUCAUG [Eternabot (L1) Solution 45] (Eterna round: R97, puzzle: Exclusion 2)	87.3	–	24.8	–	–	–

Sequence	apparent KD of MS2 coat protein (input ligand: FMN 200 uM) [nM]	apparent KD of MS2 coat protein [1] [nM]	apparent KD of MS2 coat protein (input ligand: none) [nM]	apparent KD of MS2 coat protein [2] [nM]	apparent KD of MS2 coat protein [3] [nM]	apparent KD of MS2 coat protein [4] [nM]
CAUACACAUGAGGAUCACCCAUGUGAGGAUAUUCGCGCGCGCGCCCGGGCGCGCGCGCGGAGAAGGCACGUGCG [My first try] (Eterna round: R97, puzzle: Exclusion 1)	76.7	–	51.2	–	–	–
CAUACAGUAGUUAGGAUAUUGCAACGUACACGGAACGAGAAGGGACAUGAGGAUCACCCAUGUAGAUUGUAAAG [EX-4 Malc #8] (puzzle: Brourd's mod of Exclusion 4)	–	–	–	–	20	–
CAUACUCAAGUCAGGAUAUAGAGUCGGAUACGGAUCUAGAAGGGACAUGAGGAUCACCCAUGUAGAGAGUAAAG [EX-4 Malc #25] (puzzle: Brourd's mod of Exclusion 4)	–	–	–	88	38	21.1
CAUAGUAAUUAGGAUAUCUGCCGGCUGAACCGAGGAGAAGGGAUUACAUGAGGAUCACCCAUGUGGUCCUAAGA [Relegebe] (puzzle: Exclusion 6)	–	–	–	–	14.5	–
CAUAGUUGCUCAGGAUAUCAUACAUGAGGAUCACCCAUGUAAUAAAUGAGAAUUUCGAAUGUAAAUGAGAAGGGAGAAAUCUAC [Ostracism 60 - Jieux - Exclusion NG 2] (Eterna round: R96, puzzle: Exclusion NG 2)	22.5	11.6	14.4	–	–	–
CAUAUAGUAGUGAGGAUAUGCGAAUAUAUAAUUAAGUAGAAGGCACAUGAGGAUCACCCAUGUAUAUUGUAAAG [EX-4 Malc] (puzzle: Brourd's mod of Exclusion 4)	–	–	–	–	18.9	–
CAUGAUCUUCGGAUCAUGUACAUGAGGAUCACCCAUGUUACGAGCAGAUCUUCAUACAAGCUUUUUGCUCGUCUUAU [Sensor v3 - Turn-off variant 1 - 34] (puzzle: Sensor v3, turn-off variant 1)	–	–	–	34.5	64.9	40.4
CAUGAUUGGGAAGGAUAUUGACCUAGUUAGUGCCGAGAAGGUCCCUUUCACAUGAGGAUCACCCAUGUGAGUCUGGUGUUCGAG [Ex NG1 #97] (Eterna round: R96, puzzle: Exclusion NG 1)	43.1	23.7	30.5	–	–	–
CAUGGAACGUAGGAUAUCUCACAGCCAGGCUGCAGAGAAGGACGUACAUGAGGAUCACCCAUGUAUGAUCCAAA [Tius] (puzzle: Exclusion 6)	–	–	–	26.9	15.5	17.5
CAUGUCCAACGAGGAUAUGGUAAAGGAAGUGUACCAGAAGGCGUGCGGACAUGAGGAUCACCCAUGUCGCGCGGUGCGAUGUGG [MOD3 Nando EXNG 1.1] (Eterna round: R96, puzzle: Exclusion NG 1)	37.2	15.8	29.3	–	–	–
CAUGUCUGAGGAUAUCGUUAUUUGUACAUGAGGAUCACCCAUGUCCUAUUUAUUAUAUUUCGAGAAGGCAGUGUAU [JR_E5_Sub093] (puzzle: Exclusion 5)	–	–	–	–	15.6	–
CAUGUCUGAGGAUAUCGUUUUUUGUACAUGAGGAUCACCCAUGUCCUAUUUUUUUUAUUUCGAGAAGGCAGUGUAU [JR_E5_Sub092] (puzzle: Exclusion 5)	–	–	–	–	32.6	–
CAUUAGCGAGGAUAUACAUGAGGAUCACCCAUGUGAUCCUAAGGCUGAUGAAGCCUAUGUAGAAGGCGCAAAUU [jl-ex3.4.54 ViennaUCT mod] (Eterna round: R97, puzzle: Exclusion 3)	107	–	42.2	–	–	–
CCAAGAAUAGGAUAUACACCAUGUCAGCUUCUAUACAACGCACAUGAGGAUCACCCAUGUAGAAGGGUUCUCUC [Exclusion-2-#3] (Eterna round: R97, puzzle: Exclusion 2)	386	–	433	–	–	–
CCAAUCAGAGGAUAUGCGAAUAAAUAAAACUUUUUUUUUUAACAUGAGGAUCACCCAUGUAGAAGGCUGUAACC [Ex2 #43] (Eterna round: R97, puzzle: Exclusion 2)	31.5	–	25.4	–	–	–
CCACGUCCGUACGUGUACUUGUCUCCUGUGUGCCCGGGUACAUGAGGAUCACCCAUGUCUGUGCUCGCCUUCUGCCC [JR_Sensorv2_tov2_Sub724] (Eterna round: R96, puzzle: Sensor v2, turn-off variant 2)	126	84.7	165	–	–	–
